Results published in publication PMC12667553 (2025).

Molecular target: His6-tagged YAP, purified (immobilised in BLI) (UniProt P46937 1-504)
Test: BLI

Chain of His6-tagged YAP, purified (immobilised in BLI) (P46937 whole entry): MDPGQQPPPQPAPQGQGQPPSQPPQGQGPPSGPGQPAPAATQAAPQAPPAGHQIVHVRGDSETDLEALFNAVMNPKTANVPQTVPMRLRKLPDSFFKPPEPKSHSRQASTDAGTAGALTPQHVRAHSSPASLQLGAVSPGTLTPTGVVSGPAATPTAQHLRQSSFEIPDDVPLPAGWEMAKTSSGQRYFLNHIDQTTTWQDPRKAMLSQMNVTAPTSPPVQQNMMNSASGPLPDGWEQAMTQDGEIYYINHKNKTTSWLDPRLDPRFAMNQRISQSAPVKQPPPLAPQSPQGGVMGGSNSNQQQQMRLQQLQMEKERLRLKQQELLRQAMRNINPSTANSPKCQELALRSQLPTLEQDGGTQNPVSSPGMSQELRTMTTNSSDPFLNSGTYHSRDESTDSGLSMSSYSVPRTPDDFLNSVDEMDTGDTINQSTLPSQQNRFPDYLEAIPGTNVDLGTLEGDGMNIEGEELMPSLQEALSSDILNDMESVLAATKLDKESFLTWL

Kd: 7.9 µM
B1: recombinant TWF2, purified (BLI analyte) (natural protein)
chain: MAHQTGIHATEELKEFFAKARAGSVRLIKVVIEDEQLVLGASQEPVGRWDQDYDRAVLPLLDAQQPCYLLYRLDSQNAQGFEWLFLAWSPDNSPVRLKMLYAATRATVKKEFGGGHIKDELFGTVKDDLSFAGYQKHLSSCAAPAPLTSAERELQQIRINEVKTEISVESKHQTLQGLAFPLQPEAQRALQQLKQKMVNYIQMKLDLERETIELVHTEPTDVAQLPSRVPRDAARYHFFLYKHTHEGDPLESVVFIYSMPGYKCSIKERMLYSSCKSRLLDSVEQDFHLEIAKKIEIGDGAELTAEFLYDEVHPKQHAFKQAFAKPKGPGGKRGHKRLIRGPGENGDDS
